Measurements published in patent US20190352423A1 (Genmab, published 2019).
Where a chain is given by its changes, count along the chain named. Names may count otherwise.

B1: bsCD63xb12-Duo3 (bispecific antibody, part only; not given: b12 control arm VH and VL, IgG1, V domains shown, part only)
VH: EVQLQQSGPELVKPGASVKMSCKASGYTFTSYVMHWVRQTPGQGLEWIGYITPYNDGTKYNEKFKGKATLTSDKSSSTAYMELSSLTSEDSAVYYCVGGDNYYYAMDYWGQGTSVTVSAA
VL: NIMVTQSPSSLAVSAGEKVTMSCKSSQSVLYSSNQKNYLAWYQQKPGQSPKLLIYWASTRVSGVPDRFTGSGSGTDFTLTISRVQAEDLAVYYCHQYFSSFTFGSGTKLEIKRT
B2: bsCD63xb12-Duo3 with CD63 variant Y46 (bispecific antibody, part only; not given: b12 control arm VH and VL, V domains shown, part only)
VH: B1 VH with Y27H
VL: B1 VL
B3: bsCD63N74Hxb12 (bispecific antibody, part only; not given: b12 control arm, constant regions, V domains shown, not shown: another chain or arm of the molecule; a dimerising Fc or GST)
VH: EVQLQQSGPELVKPGASVKMSCKASGYTFTSYVMHWVRQTPGQGLEWIGYITPYHDGTKYNEKFKGKATLTSDKSSSTAYMELSSLTSEDSAVYYCVGGDNYYYAMDYWGQGTSVTVSA
VL: NIMVTQSPSSLAVSAGEKVTMSCKSSQSVLYSSNQKNYLAWYQQKPGQSPKLLIYWASTRVSGVPDRFTGSGSGTDFTLTISRVQAEDLAVYYCHQYFSSFTFGSGTKLEIK
B4: bsHER2xCD63-Duo3 with CD63 variant Y46 (bispecific antibody, part only; not given: HER2 arm (IgG1-153) VH and VL, V domains shown, part only)
VH: B1 VH with Y27H
VL: B1 VL
B5: bsCD63xb12-Duo3 with CD63 variant Y79H (bispecific antibody, part only; not given: b12 control arm, V domains shown, part only)
VH: B1 VH with Y60H
VL: B1 VL
B6: bsHER2xCD63-Duo3 with CD63 variant Y79H (bispecific antibody, part only; not given: HER2 arm (IgG1-153) VH and VL, V domains shown, part only)
VH: B1 VH with Y60H
VL: B1 VL
B7: bsHER2xCD63-Duo3 (bispecific antibody, part only; not given: HER2 arm, IgG1, V domains shown, part only)
VH: B1 VH
VL: B1 VL
B8: bsCD63xb12-Duo3 with CD63 variant Y127 (bispecific antibody, part only; not given: b12 control arm VH and VL, V domains shown, part only)
VH: B1 VH with Y108H
VL: B1 VL
B9: bsHER2xCD63-Duo3 with CD63 variant Y127 (bispecific antibody, part only; not given: HER2 arm (IgG1-153) VH and VL, V domains shown, part only)
VH: B1 VH with Y108H
VL: B1 VL
B10: bsCD63xb12-Duo3 with CD63 variant LQ47 (bispecific antibody, part only; not given: b12 control arm, V domains shown, part only)
VH: B1 VH
VL: B1 VL with Q27H
B11: bsHER2xCD63-Duo3 with CD63 variant LQ47 (bispecific antibody, part only; not given: HER2 arm, V domains shown, part only)
VH: B1 VH
VL: B1 VL with Q27H
B12: bsCD63xb12-Duo3 with CD63 variant LS52 (bispecific antibody, part only; not given: b12 control arm VH and VL, V domains shown, part only)
VH: B1 VH
VL: B1 VL with S32H
B13: bsHER2xCD63-Duo3 with CD63 variant LS52 (bispecific antibody, part only; not given: HER2 arm (IgG1-153) VH and VL, V domains shown, part only)
VH: B1 VH
VL: B1 VL with S32H
B14: bsCD63xb12-Duo3 with CD63 variant T71H (bispecific antibody, part only; not given: b12 control arm, V domains shown, part only)
VH: B1 VH with T52H
VL: B1 VL
B15: bsHER2xCD63-Duo3 with CD63 variant T71H (bispecific antibody, part only; not given: HER2 arm (IgG1-153) VH and VL, V domains shown, part only)
VH: B1 VH with T52H
VL: B1 VL
B16: bsCD63xb12-Duo3 with CD63 variant P72H (bispecific antibody, part only; not given: b12 control arm, V domains shown, part only)
VH: B1 VH with P53H
VL: B1 VL
B17: bsHER2xCD63-Duo3 with CD63 variant P72H (bispecific antibody, part only; not given: HER2 arm (IgG1-153) VH and VL, V domains shown, part only)
VH: B1 VH with P53H
VL: B1 VL
B18: bsCD63N74Hxb12-Duo3 (bispecific antibody, part only; not given: b12 control arm, V domains shown, part only)
VH: B1 VH with N55H
VL: B1 VL
B19: bsHER2xCD63N74H-Duo3 (bispecific antibody, part only; not given: HER2 arm, V domains shown, part only)
VH: B1 VH with N55H
VL: B1 VL
B20: bsCD63xb12-Duo3 with CD63 variant LN54H (bispecific antibody, part only; not given: b12 control arm VH and VL, V domains shown, part only)
VH: B1 VH
VL: B1 VL with N34H
B21: bsHER2xCD63-Duo3 with CD63 variant LN54H (bispecific antibody, part only; not given: HER2 arm (IgG1-153) VH and VL, V domains shown, part only)
VH: B1 VH
VL: B1 VL with N34H
B22: bsCD63xb12-Duo3 with CD63 variant G76H (bispecific antibody, part only; not given: b12 control arm VH and VL, V domains shown, part only)
VH: B1 VH with G57H
VL: B1 VL
B23: bsHER2xCD63-Duo3 with CD63 variant G76H (bispecific antibody, part only; not given: HER2 arm (IgG1-153) VH and VL, V domains shown, part only)
VH: B1 VH with G57H
VL: B1 VL
B24: bsCD63xb12-Duo3 with CD63 variant Y121H (bispecific antibody, part only; not given: b12 control arm VH and VL, V domains shown, part only)
VH: B1 VH with Y102H
VL: B1 VL
B25: bsHER2xCD63-Duo3 with CD63 variant Y121H (bispecific antibody, part only; not given: HER2 arm, V domains shown, part only)
VH: B1 VH with Y102H
VL: B1 VL
B26: bsCD63xb12-Duo3 with CD63 variant LV49H (bispecific antibody, part only; not given: b12 control arm, V domains shown, part only)
VH: B1 VH
VL: B1 VL with V29H
B27: bsHER2xCD63-Duo3 with CD63 variant LV49H (bispecific antibody, part only; not given: HER2 arm (IgG1-153) VH and VL, V domains shown, part only)
VH: B1 VH
VL: B1 VL with V29H
B28: bsCD63xb12-Duo3 with CD63 variant LY51H (bispecific antibody, part only; not given: b12 control arm VH and VL, V domains shown, part only)
VH: B1 VH
VL: B1 VL with Y31H
B29: bsHER2xCD63-Duo3 with CD63 variant LY51H (bispecific antibody, part only; not given: HER2 arm (IgG1-153) VH and VL, V domains shown, part only)
VH: B1 VH
VL: B1 VL with Y31H

Molecular target: CD63 on cells (human) (UniProt P08962)
Sequence (P08962 2-238): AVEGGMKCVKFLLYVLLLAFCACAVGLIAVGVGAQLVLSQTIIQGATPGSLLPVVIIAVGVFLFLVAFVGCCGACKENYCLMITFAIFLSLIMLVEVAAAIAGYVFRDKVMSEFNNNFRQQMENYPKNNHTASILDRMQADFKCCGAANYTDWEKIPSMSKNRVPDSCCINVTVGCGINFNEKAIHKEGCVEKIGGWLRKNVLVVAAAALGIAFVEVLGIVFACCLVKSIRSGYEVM
Assay: cell-based or functional assay

| Binder | IC50 of cytotoxicity, Colo205 cells (CellTiter-GLO, 4 days) [µg/mL] | IC50 of cytotoxicity, HCC1954 cells (CellTiter-GLO, 4 days) [µg/mL] | IC50 of cytotoxicity, SK-OV-3 cells (CellTiter-GLO, 4 days) [µg/mL] | lysosomal co-localization with LAMP1 in SK-OV-3 cells (confocal microscopy, 16 hours) [fold lower] |
| --- | --- | --- | --- | --- |
| B1 | 2.61 | 0.424 | 0.815 |  |
| B2 | 5.64 | 0.9 | 1.37 |  |
| B3 |  |  |  | 10 |
| B4 | 0.754 | 0.016 | 0.045 |  |
| B5 | 3.41 | 0.42 | 0.93 |  |
| B6 | 0.432 | 0.008 | 0.021 |  |
| B7 | 0.416 | 0.009 | 0.017 |  |
| B8 | 1.89 | 0.664 | 1.08 |  |
| B9 | 0.472 | 0.017 | 0.061 |  |
| B10 | 2.43 | 0.753 | 1.11 |  |
| B11 | 0.587 | 0.017 | 0.048 |  |
| B12 | 2.25 | 0.662 | 1.13 |  |
| B13 | 0.567 | 0.018 | 0.047 |  |
| B14 | 10 | 4.89 | 3.8 |  |
| B15 | 2.23 | 0.03 | 0.115 |  |
| B16 | 10 | 0.92 | 1.72 | 10 |
| B17 | 1.4 | 0.014 | 0.028 |  |
| B18 | 3.93 | 1.35 | 1.99 |  |
| B19 | 1.35 | 0.017 | 0.037 |  |
| B20 | 10 | 1.55 | 3.35 | 10 |
| B21 | 1.69 | 0.013 | 0.021 |  |
| B22 | 1.42 | 10 | 3.06 |  |
| B23 | 10 | 0.104 | 0.351 |  |
| B24 | 10 | 10 | 5.46 | 10 |
| B25 | 10 | 0.073 | 0.259 |  |
| B26 | 10 | 1.65 | 1.4 |  |
| B27 | 10 | 0.065 | 0.314 |  |
| B28 | 10 | 5.27 | 4.52 |  |
| B29 | 10 | 0.069 | 0.207 |  |
